Source: patent US20180320179A1, “LANOSTEROL 14-ALPHA DEMETHYLASE (CYP51) NUCLEIC ACID MOLECULES THAT CONTROL PATHOGENS” (Dow AgroSciences LLC, priority 2017, published 2018)

Experiments:
[1] = test system: Zymoseptoria tritici (SEPTTR US-184); experiment: Cyp51 dsRNA foliar application bioassay on wheat seedlings, isolate US-184 (Example 5); type: in vivo; conditions: compared to the non-treated control; isolate not given
Method: RNAi (dsRNA) fungicidal solutions were prepared in TE buffer (pH 8.0), which were then mixed with 9 volumes of phosphate buffer (pH 7.5) containing an adjuvant. The fungicidal solutions were applied to wheat seedlings using an automated booth sprayer to run-off. All sprayed plants were allowed to air dry prior to further handling.
The following served as controls: adjuvant in phosphate buffer control, disease pressure control (untreated), and clean plant control (negative control).
(§1) These plants were inoculated with an aqueous spore suspension of Zymoseptoria tritici either prior to or after fungicidal treatments. After inoculation the plants were kept in 100% relative humidity to allow spores to germinate and infect the leaves. The plants were then transferred to a greenhouse set at 20° C. until disease developed.

[2] = test system: Zymoseptoria tritici (SEPTTR-184); experiment: Cyp51 dsRNA tile (fragment) foliar application bioassay (Example 6); type: in vivo; conditions: for ED50 (ppm) SEPTTR-184 1DP / ED80 (ppm) SEPTTR-184 1DP / Disease Control (%) SEPTTR-184 1DP: 1 day protectant; for ED50 (ppm) SEPTTR-184 1DP / ED80 (ppm) SEPTTR-184 1DP / ED50 (ppm) SEPTTR-184 3DC / ED80 (ppm) SEPTTR-184 3DC: calculated from disease control; for Disease Control (%) SEPTTR-184 1DP / Disease Control (%) SEPTTR-184 3DC: average of 2 trials; for ED50 (ppm) SEPTTR-184 3DC / ED80 (ppm) SEPTTR-184 3DC / Disease Control (%) SEPTTR-184 3DC: 3 days curative
Method: The 200 ppm concentration for each treatment was prepared by adding the calculated volume of the corresponding dsRNA solution in TE buffer. […] A non-target dsRNA control (YFP), a TE/phosphate buffer control, disease pressure control, and clean plant control were included.
as §1

| Molecule | control of Septoria leaf blotch on wheat seedlings [1] | ED50 (ppm) SEPTTR-184 1DP [2] [ppm] | ED80 (ppm) SEPTTR-184 1DP [2] [ppm] | Disease Control (%) SEPTTR-184 1DP ([2]; rate 3.125 ppm) [%] | Disease Control (%) SEPTTR-184 1DP ([2]; rate 12.5 ppm) [%] | Disease Control (%) SEPTTR-184 1DP ([2]; rate 50 ppm) [%] | Disease Control (%) SEPTTR-184 1DP ([2]; rate 200 ppm) [%] | ED50 (ppm) SEPTTR-184 3DC [2] [ppm] | ED80 (ppm) SEPTTR-184 3DC [2] [ppm] | Disease Control (%) SEPTTR-184 3DC ([2]; rate 3.125 ppm) [%] | Disease Control (%) SEPTTR-184 3DC ([2]; rate 12.5 ppm) [%] | Disease Control (%) SEPTTR-184 3DC ([2]; rate 50 ppm) [%] | Disease Control (%) SEPTTR-184 3DC ([2]; rate 200 ppm) [%] |
| --- | --- | --- | --- | --- | --- | --- | --- | --- | --- | --- | --- | --- | --- |
| MgCyp51-T5: dsRNA tile of Zymoseptoria tritici Cyp51, 133 bp, location 1316-1448 (nucleic acid, listed as Zymoseptoria tritici) AATACAAGCACCTGTCCCCGACGACTGCCCTAGGAAGCATCGCCGAGGAGAAAGAAGACTATGGCTACGGCCTGGTAAGCAAGGGCGCGGCGTCGCCATACTTACCCTTTGGTGCGGGACGACACAGATGTAT | control Septoria leaf blotch | <3.125 | >200 | 61 | 66 | 70 | 77 | <3.125 | >200 | 52 | 64 | 68 | 78 |
| MgCyp51-T6: dsRNA tile of Zymoseptoria tritici Cyp51, 280 bp, location 881-1160 (nucleic acid, listed as Zymoseptoria tritici) ATGCCATTCCCGACAAGGAGATTGCTCATATGATGATTGCGCTGCTCATGGCCGGCCAGCACTCTTCATCTGCGACCGAGTCCTGGATCACTCTCCGCCTCGCATCCCGCCCCGACATCCAAGACGAACTCCTCCAAGAACAAAAGGATATGCTCGGTGTGAACGCCGACGGCAGTATCAAGGAGCTCACATACGCCAACCTCTCGAAACTCACCCTCCTCAATCAAGTCGTCAAAGAAACCCTTCGTATTCACGCTCCAATCCACTCCATTCTGCGCAA | control Septoria leaf blotch | 3.125 | >200 | 50 | 55 | 71 | 74 | 29.167 | >200 | 48 | 46 | 55 | 61 |
| MgCyp51-T8: dsRNA tile of Zymoseptoria tritici Cyp51, 242 bp, location 1151-1392 (nucleic acid, listed as Zymoseptoria tritici) TTCTGCGCAAGGTCAAGTCTCCCATGCCCATCGAAGGTACGGCATACGTCATTCCAACCACCCACACTCTTCTGGCCGCTCCGGGCACAACGAGCCGCATGGACGAGCACTTTCCCGACTGCCTCCATTGGGAGCCGCATCGATGGGACGAGAGCCCGTCCGAGAAATACAAGCACCTGTCCCCGACGACTGCCCTAGGAAGCATCGCCGAGGAGAAAGAAGACTATGGCTACGGCCTGGTA | control Septoria leaf blotch | 5.208 | >200 | 46 | 64 | 65 | 74 | <3.125 | >200 | 61 | 68 | 73 | 73 |
| MgCyp51-T11: dsRNA tile of Zymoseptoria tritici Cyp51, 172 bp, location 775-946 (nucleic acid, listed as Zymoseptoria tritici) TCCGAGACATACATGTCGATCATTCAGAAGAGACGAGAGTCCAAAACGGGCGAACATGAGGAAGACATGATCCACAACTTGATGCAGTGCAAATACAAGGACGGCAATGCCATTCCCGACAAGGAGATTGCTCATATGATGATTGCGCTGCTCATGGCCGGCCAGCACTCTT | – | <3.125 | >200 | 63 | 61 | 58 | 61 | 12.500 | >200 | 47 | 50 | 55 | 42 |
| MgCyp51-T12: dsRNA tile of Zymoseptoria tritici Cyp51, 138 bp, location 1377-1514 (nucleic acid, listed as Zymoseptoria tritici) TGGCTACGGCCTGGTAAGCAAGGGCGCGGCGTCGCCATACTTACCCTTTGGTGCGGGACGACACAGATGTATCGGCGAGCAATTCGCGTACGTGCAATTGCAGACCATTACAGCGACGATGGTTCGCGATTTCAAGTT | – | <3.125 | >200 | 59 | 64 | 63 | 64 | 24.219 | >200 | 36 | 45 | 61 | 71 |
| MgCyp51-T13: dsRNA tile of Zymoseptoria tritici Cyp51, 119 bp, location 1517-1635 (nucleic acid, listed as Zymoseptoria tritici, long dsRNA tile, purified, chemistry not given here) ACAATGTGGATGGCAGCGACAACGTGGTGGGTACGGATTACAGCAGTTTGTTCAGCCGGCCGCTGTCGCCGGCAGTAGTAAAGTGGGAGAGGAGGGAGGAGAAGGAGGAGAAGAACTGA | – | <3.125 | >200 | 58 | 59 | 70 | 74 | 4.167 | >200 | 45 | 54 | 64 | 59 |
| YFP: non-target dsRNA control (YFP, yellow fluorescent protein coding region) (nucleic acid, double-stranded RNA; synthesized partial coding region) TGTAGAAATCCTTCAGCTCGGGGCCGTACTTGGCGAAGCACTGGGCGCCGTAGGTCAGGGTGGTCACCAGGGTGCTCCAGGGCACGGGCACATCGCCGGTGGTGCAGATGAACTGGGCATCCACCTTGCCCACGCTGGCATCGCCGTAGCCCTTGCCGCGGATGCTGAAGGTGTGGCCATCCACATTGCCCTCCATCTCCACCACGTAGGGGATCTTGCCGTGGAACAGCAGGGCGCCGCTGGAGCCCAT | – | >200 | >200 | 0 | 15 | 23 | 27 | >200 | >200 | 15 | 19 | 19 | 35 |
